From article PMC10241002 (Autophagy, 2022)

Target: the molecule itself
Assay: single-molecule fluorescence stoichiometry analysis

B1: Atg9-GFP (purified, GFP-3xFLAG fusion) (natural protein, S. cerevisiae, UniProt Q12142 1-997, looked up)
chain: MERDEYQLPNSHGKNTFLSRIFGLQSDEVNPSLNSQEMSNFPLPDIERGSSLLHSTNDSREDVDENDLRVPESDQGTSTEEEDEVDEEQVQAYAPQISDGLDGDHQLNSVTSKENVLETEKSNLERLVEGSTDDSVPKVGQLSSEEEEDNEFINNDGFDDDTPLFQKSKIHEFSSKKSNTIEDGKRPLFFRHILQNNRPQRDTQKLFTSSNAIHHDKDKSANNGPRNINGNQKHGTKYFGSATQPRFTGSPLNNTNRFTKLFPLRKPNLLSNISVLNNTPEDRINTLSVKERALWKWANVENLDIFLQDVYNYYLGNGFYCIILEKILNICTLLFVVFVSTYMGHCVDYSKLPTSHRVSDIIIDKCYSNSITGFTKFFLWMFYFFVILKIVQLYFDVQKLSELQNFYKYLLNISDDELQTLPWQNVIQQLMYLKDQNAMTANVVEVKAKNRIDAHDVANRIMRRENYLIALYNSDILNLSLPIPLFRTNVLTKTLEWNINLCVMGFVFNESGFIKQSILKPSQREFTREELQKRFMLAGFLNIILAPFLVTYFVLLYFFRYFNEYKTSPGSIGARQYTPIAEWKFREYNELYHIFKKRISLSTTLANKYVDQFPKEKTNLFLKFVSFICGSFVAILAFLTVFDPENFLNFEITSDRSVIFYITILGAIWSVSRNTITQEYHVFDPEETLKELYEYTHYLPKEWEGRYHKEEIKLEFCKLYNLRIVILLRELTSLMITPFVLWFSLPSSAGRIVDFFRENSEYVDGLGYVCKYAMFNMKNIDGEDTHSMDEDSLTKKIAVNGSHTLNSKRRSKFTAEDHSDKDLANNKMLQSYVYFMDDYSNSENLTGKYQLPAKKGYPNNEGDSFLNNKYSWRKQFQPGQKPELFRIGKHALGPGHNISPAIYSTRNPGKNWDNNNNGDDIKNGTNNATAKNDDNNGNNDHEYVLTESFLDSGAFPNHDVIDHNKMLNSNYNGNGILNKGGVLGLVKEYYKKSDVGR
binding result: binds

B2: Atg9^F627A-GFP (purified, GFP-3xFLAG fusion) (natural protein, S. cerevisiae, UniProt Q12142 1-997, looked up)
chain: MERDEYQLPNSHGKNTFLSRIFGLQSDEVNPSLNSQEMSNFPLPDIERGSSLLHSTNDSREDVDENDLRVPESDQGTSTEEEDEVDEEQVQAYAPQISDGLDGDHQLNSVTSKENVLETEKSNLERLVEGSTDDSVPKVGQLSSEEEEDNEFINNDGFDDDTPLFQKSKIHEFSSKKSNTIEDGKRPLFFRHILQNNRPQRDTQKLFTSSNAIHHDKDKSANNGPRNINGNQKHGTKYFGSATQPRFTGSPLNNTNRFTKLFPLRKPNLLSNISVLNNTPEDRINTLSVKERALWKWANVENLDIFLQDVYNYYLGNGFYCIILEKILNICTLLFVVFVSTYMGHCVDYSKLPTSHRVSDIIIDKCYSNSITGFTKFFLWMFYFFVILKIVQLYFDVQKLSELQNFYKYLLNISDDELQTLPWQNVIQQLMYLKDQNAMTANVVEVKAKNRIDAHDVANRIMRRENYLIALYNSDILNLSLPIPLFRTNVLTKTLEWNINLCVMGFVFNESGFIKQSILKPSQREFTREELQKRFMLAGFLNIILAPFLVTYFVLLYFFRYFNEYKTSPGSIGARQYTPIAEWKFREYNELYHIFKKRISLSTTLANKYVDQFPKEKTNLFLKFVSAICGSFVAILAFLTVFDPENFLNFEITSDRSVIFYITILGAIWSVSRNTITQEYHVFDPEETLKELYEYTHYLPKEWEGRYHKEEIKLEFCKLYNLRIVILLRELTSLMITPFVLWFSLPSSAGRIVDFFRENSEYVDGLGYVCKYAMFNMKNIDGEDTHSMDEDSLTKKIAVNGSHTLNSKRRSKFTAEDHSDKDLANNKMLQSYVYFMDDYSNSENLTGKYQLPAKKGYPNNEGDSFLNNKYSWRKQFQPGQKPELFRIGKHALGPGHNISPAIYSTRNPGKNWDNNNNGDDIKNGTNNATAKNDDNNGNNDHEYVLTESFLDSGAFPNHDVIDHNKMLNSNYNGNGILNKGGVLGLVKEYYKKSDVGR
stoichiometry N: 3
